Source: paper PMC10397247
Like-named read-outs stand apart in the source and are kept apart here. One block for each binder: values may come before it.

Experiments:
Assay in all cases: two-hybrid library CCmax;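 note: natural log of median RNA to DNA barcode read ratio; higher means stronger binding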
[1] = molecular target: T1, 4H341-AA; settings: mean of both orientations
T1 chain: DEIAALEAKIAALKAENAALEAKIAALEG

[2] = molecular target: T2, 4H2931-AA; settings: mean of both orientations
T2 chain: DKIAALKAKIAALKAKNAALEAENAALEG

[3] = molecular target: T3, 4H63-AA; settings: mean of both orientations
T3 chain: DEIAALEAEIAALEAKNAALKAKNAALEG

[4] = molecular target: T4, 4H452-AA; settings: mean of both orientations
T4 chain: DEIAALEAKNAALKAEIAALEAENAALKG

[5] = molecular target: T5, 4H2728-AA; settings: mean of both orientations
T5 chain: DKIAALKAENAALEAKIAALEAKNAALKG

[6] = molecular target: T6, 4H3939-AA; settings: mean of both orientations
T6 chain: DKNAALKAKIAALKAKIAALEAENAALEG

[7] = molecular target: T7, 4H406-AA; settings: mean of both orientations
T7 chain: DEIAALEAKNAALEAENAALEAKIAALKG

[8] = molecular target: T8, 4H446-AA; settings: mean of both orientations
T8 chain: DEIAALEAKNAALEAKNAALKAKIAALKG

[9] = molecular target: T9, 4H2611-AA
T9 chain: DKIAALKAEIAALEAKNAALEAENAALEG

[10] = molecular target: T10, 4H2580-AA; settings: mean of both orientations
T10 chain: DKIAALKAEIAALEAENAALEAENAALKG

[11] = molecular target: T11, 4H2732-AA; settings: mean of both orientations
T11 chain: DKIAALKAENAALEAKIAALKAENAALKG

[12] = molecular target: T12, 4H_BCR; settings: mean of both orientations
T12 chain: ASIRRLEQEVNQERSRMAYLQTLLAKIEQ

[13] = molecular target: T13, 4H3016-AA; settings: mean of both orientations
T13 chain: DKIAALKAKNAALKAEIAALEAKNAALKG

[14] = molecular target: T14, 4H629-AA; settings: mean of both orientations
T14 chain: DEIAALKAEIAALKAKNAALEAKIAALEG

[15] = molecular target: T15, 4H2725-AA; settings: mean of both orientations
T15 chain: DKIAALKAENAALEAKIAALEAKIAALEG

[16] = molecular target: T16, 4H2649-AA; settings: mean of both orientations
T16 chain: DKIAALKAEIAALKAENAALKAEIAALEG

[17] = molecular target: T17, 4H1877-AA; settings: mean of both orientations
T17 chain: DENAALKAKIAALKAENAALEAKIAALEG

[18] = molecular target: T18, 4H174-AA; settings: mean of both orientations
T18 chain: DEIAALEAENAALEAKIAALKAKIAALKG

[19] = molecular target: T19, 4H1864-AA; settings: mean of both orientations
T19 chain: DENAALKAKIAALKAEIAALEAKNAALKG

[20] = molecular target: T20, 4H2162-AA; settings: mean of both orientations
T20 chain: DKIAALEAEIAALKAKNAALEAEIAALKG

[21] = molecular target: T21, O13-AA; settings: mean of both orientations
T21 chain: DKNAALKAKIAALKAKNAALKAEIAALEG

[22] = molecular target: T22, 4H384-AA; settings: mean of both orientations
T22 chain: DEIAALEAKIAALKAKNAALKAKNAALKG

[23] = molecular target: T23, 4H340-AA
T23 chain: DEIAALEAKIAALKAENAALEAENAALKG

[24] = molecular target: T24, 4H2648-AA; settings: mean of both orientations
T24 chain: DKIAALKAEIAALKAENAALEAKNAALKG

[25] = molecular target: T25, 4H3378-AA; settings: mean of both orientations
T25 chain: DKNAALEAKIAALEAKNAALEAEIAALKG

[26] = molecular target: T26, 4H3056-AA; settings: mean of both orientations
T26 chain: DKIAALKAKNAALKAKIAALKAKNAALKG

[27] = molecular target: T27, 4H2907-AA; settings: mean of both orientations
T27 chain: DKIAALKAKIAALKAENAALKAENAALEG

[28] = molecular target: T28, 4H3427-AA; settings: mean of both orientations
T28 chain: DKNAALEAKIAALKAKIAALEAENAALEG

[29] = molecular target: T29, 4H1513-AA; settings: mean of both orientations
T29 chain: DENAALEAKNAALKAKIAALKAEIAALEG

[30] = molecular target: T30, 4H881-AA; settings: mean of both orientations
T30 chain: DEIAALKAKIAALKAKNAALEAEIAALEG

[31] = molecular target: T31, 4H2617-AA; settings: mean of both orientations
T31 chain: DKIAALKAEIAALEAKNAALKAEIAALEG

[32] = molecular target: T32, 4H429-AA; settings: mean of both orientations
T32 chain: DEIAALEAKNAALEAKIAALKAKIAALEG

[33] = molecular target: T33, 4H234-AA; settings: mean of both orientations
T33 chain: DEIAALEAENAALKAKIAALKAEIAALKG

[34] = molecular target: T34, 4H1594-AA; settings: mean of both orientations
T34 chain: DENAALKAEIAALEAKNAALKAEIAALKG

[35] = molecular target: T35, 4H1401-AA
T35 chain: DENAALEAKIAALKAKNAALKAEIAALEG

[36] = molecular target: T36, 4H3627-AA; settings: mean of both orientations
T36 chain: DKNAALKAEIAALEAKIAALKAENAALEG

[37] = molecular target: T37, 4H454-AA; settings: mean of both orientations
T37 chain: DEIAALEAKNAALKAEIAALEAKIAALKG

[38] = molecular target: T38, 4H906-AA; settings: mean of both orientations
T38 chain: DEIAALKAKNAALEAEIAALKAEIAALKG

[39] = molecular target: T39, 4H317-AA
T39 chain: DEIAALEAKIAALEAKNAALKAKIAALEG

[40] = molecular target: T40, 4H1597-AA; settings: mean of both orientations
T40 chain: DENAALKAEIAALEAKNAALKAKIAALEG

[41] = molecular target: T41, 4H1626-AA
T41 chain: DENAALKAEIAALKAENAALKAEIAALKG

[42] = molecular target: T42, 4H1478-AA; settings: mean of both orientations
T42 chain: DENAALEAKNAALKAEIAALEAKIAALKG

[43] = molecular target: T43, 4H1388-AA; settings: mean of both orientations
T43 chain: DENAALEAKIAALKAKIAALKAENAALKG

Binder: DEIAALEAENAALKAKNAALKAEIAALEG [4H249-AA]
interaction score [1]: 0.538 | interaction score [2]: -1.53 | interaction score [3]: -1.75 | interaction score [4]: -1.53 | interaction score [5]: -0.387 | interaction score [6]: -1.85 | interaction score [7]: 1.19 | interaction score [8]: -1.26 | interaction score ([9]; mean of both orientations): -1.99 | interaction score [10]: -0.825 | interaction score [11]: -0.302 | interaction score [12]: -1.72

Binder: DKIAALEAENAALKAEIAALKAKIAALEG [4H2253-AA]
interaction score [2]: -1.52 | interaction score [4]: -1.74 | interaction score [13]: -0.709 | interaction score [14]: -1.74 | interaction score [7]: -1.67 | interaction score [15]: -0.468 | interaction score [16]: -1.27 | interaction score [11]: -1.3 | interaction score [12]: -1.47

Binder: DEIAALEAENAALEAKIAALKAENAALEG [4H171-AA]
interaction score [17]: -1.1 | interaction score [18]: -1.16 | interaction score [19]: 0.435 | interaction score [13]: 1.66 | interaction score [14]: -1.29 | interaction score [15]: -1.12 | interaction score [20]: -1.5 | interaction score [21]: 2.21 | interaction score [22]: -1.36 | interaction score [16]: -0.999

Binder: DENAALKAKIAALEAKNAALEAKIAALEG [4H1845-AA]
interaction score ([23]; mean of both orientations): -1.97 | interaction score [24]: -1.59 | interaction score [25]: -1.04 | interaction score [26]: -1.58 | interaction score [27]: -1.92 | interaction score [28]: -1.86 | interaction score [22]: -1.55 | interaction score ([9]; mean of both orientations): -1.56

Binder: DENAALEAKIAALKAKNAALKAEIAALEG [4H1401-AA]
interaction score [29]: -1.9 | interaction score ([23]; mean of both orientations): -1.93 | interaction score [30]: -0.879 | interaction score [24]: 0.46 | interaction score [31]: -0.502 | interaction score [32]: 0.239 | interaction score [25]: -0.723 | interaction score [33]: 0.335 | interaction score [34]: -0.109 | interaction score [35]: -1.49 | interaction score [36]: -1.38 | interaction score [26]: -1.2 | interaction score [37]: -1.2 | interaction score [27]: -1.63 | interaction score [28]: -1.52 | interaction score [38]: -1.91 | interaction score [39]: -1.49 | interaction score [22]: -1.67 | interaction score ([9]; mean of both orientations): -1.66 | interaction score [12]: -1.64

Binder: DENAALEAKIAALKAKIAALKAEIAALEG [4H1385-AA]
interaction score [17]: -0.357 | interaction score [18]: 0.819 | interaction score [40]: -0.816 | interaction score [19]: 0.56 | interaction score [13]: -0.959 | interaction score [14]: -1.12 | interaction score [15]: 0.284 | interaction score [20]: -1.63 | interaction score [21]: -1.62 | interaction score [22]: -0.727 | interaction score [16]: -1.29 | interaction score [12]: -1.56 | interaction score ([41]; mean of both orientations): -1.57 | interaction score [42]: 0.852

Binder: DENAALEAKIAALKAEIAALEAKIAALKG [4H1350-AA]
interaction score [21]: 0.34 | interaction score [22]: -0.758 | interaction score [9]: -1.74 | interaction score [12]: -1.28

Binder: DKIAALEAEIAALKAKNAALEAKIAALEG [4H2165-AA]
interaction score [30]: 0.00404 | interaction score [31]: 0.892 | interaction score [2]: -1.58 | interaction score [32]: -1.87 | interaction score [4]: -1.51 | interaction score [33]: -1.27 | interaction score [36]: -1.58 | interaction score [37]: -0.571 | interaction score [28]: -1.3 | interaction score [7]: -1.15 | interaction score [38]: -1.29 | interaction score ([39]; mean of both orientations): 0.575 | interaction score [11]: -1.36 | interaction score [12]: -0.379

The remaining lines, values ahead:

interaction score [1]: -1.26 | interaction score [3]: -1.29 | interaction score [5]: -1.43 | interaction score [6]: 2.3 | interaction score [8]: -1.26 | interaction score [10]: 1.19
Binder: DENAALEAEIAALEAKIAALEAKNAALKG [4H1064-AA]

interaction score [17]: -0.845 | interaction score [18]: -1.63 | interaction score [19]: -1.36 | interaction score [13]: -1.84 | interaction score [14]: -1.63 | interaction score [7]: -1.8 | interaction score [15]: -1.77 | interaction score [20]: -1.39 | interaction score ([9]; mean of both orientations): -1.57 | interaction score [16]: 0.931 | interaction score [41]: 1.63
Binder: DENAALKAEIAALKAENAALKAEIAALKG [4H1626-AA]

interaction score [30]: 2.32 | interaction score [32]: 0.643 | interaction score [36]: -1.29 | interaction score [37]: 1.23 | interaction score [38]: -1.72 | interaction score [22]: 1.18 | interaction score [12]: -0.919
Binder: DKNAALKAEIAALEAENAALEAKIAALKG [4H3606-AA]

interaction score [1]: -1.24 | interaction score [3]: -1.72 | interaction score [5]: -0.459 | interaction score [6]: -1.27 | interaction score [28]: -1.17 | interaction score [8]: -1.65 | interaction score [10]: -1.12 | interaction score [12]: -2.19
Binder: DENAALEAENAALKAKIAALKAEIAALEG [4H1257-AA]

interaction score [29]: 1.5 | interaction score [23]: -1.49 | interaction score [30]: -1.26 | interaction score [24]: -1.19 | interaction score [31]: -2.01 | interaction score [32]: 0.137 | interaction score [25]: -1.72 | interaction score [33]: 0.621 | interaction score [34]: -1.13 | interaction score ([35]; mean of both orientations): -0.873 | interaction score [36]: -0.179 | interaction score [43]: 0.435 | interaction score [26]: 1.46 | interaction score [37]: 0.894 | interaction score [27]: -1.67 | interaction score [28]: -0.781 | interaction score [38]: -1.21 | interaction score ([39]; mean of both orientations): -1.45 | interaction score [22]: -0.314 | interaction score ([9]; mean of both orientations): -1.92
Binder: DENAALEAENAALEAEIAALEAEIAALEG [4H1153-AA]
